Drawing on article PMC4899274, this text covers stoichiometry N for one substance.

The target of the assay is triplex subunit VP23 (HSV-1) (human herpes simplex virus type 1 (HSV-1), strain KOS) (UniProt P10202). Briefly: cryo-EM structure.

Take “triplex subunit VP23 (HSV-1) (from UniProt P10202 1-318) (natural protein)”: the stoichiometry N is 2.
